In the supplement of paper PMC10201428:
± gives the standard deviation of the averaged measurements.

Tests used:
[1] = system: VchCAST RNA-guided transposition machinery (E. coli BL21(DE3) host, lacZ target); assay: relative integration efficiency (T-LR orientation) vs wild-type transposon end (log2 (normalized fold change)); transposon end mutated: left end; higher = more efficient transposition
Procedure, shortened: (§1)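 Barcoded pools of 1549 left-end or 1849 right-end transposon variants were cloned into a pUC57 mini-transposon donor. Each pool was co-transformed with a T7-driven effector plasmid (CRISPR array, tniQ-cas8-cas7-cas6, tnsA-tnsB-tnsC) into E. coli BL21(DE3) and plated with 0.1 mM IPTG at 37°C for 18 h. Input plasmids and genomic integration junctions were PCR-amplified and Illumina-sequenced, with two biological output replicates and four wild-type barcodes as reference. Relative integration efficiency is output/input barcode abundance fold change, normalised to wild-type barcodes and log-transformed.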

[2] = system: VchCAST RNA-guided transposition machinery (E. coli BL21(DE3) host, lacZ target); assay: relative integration efficiency (T-RL orientation) vs wild-type transposon end (log2 (normalized fold change)); transposon end mutated: left end; higher = more efficient transposition
Procedure, shortened: as §1

Sequence	relative integration efficiency (log2) [1]	relative integration efficiency (log2) [2]
AATGTTGTTGATGCAACCATAAAGTGATATTTAATAATTATTTATAAGACTACCAGGCCAACACCCCACCAACGCGCGGTCGCGAGACACCCCACCAACGCCTGGTCGCGGGGGTGTCCGATCTGATTTCAGCAAAACTACTGCAGTAAGAA	-6.04 ± 3.5	-6.62 ± 1.2
AATGTTGTTGATGCAACCATAAAGTGATATTTAATAATTATTTATAATACTACCAGGCCAACACCCCACCAACGCGCGGTCGCGAGACACCCCACCAACGCCTGGTCGCGGGGGTGTCCGATCTGATTTCAGCAAAACTACTGCAGTAAGAA	-3.51 ± 1.3	-6.5 ± 1.2
AATGTTGTTGATGCAACCATAAAGTGATATTTAATAATTATTTATAATCAACCATATATTGATATCTCACAAAACAACCATAAGTTGATATTTTTGTGAATCGAGTATTTCAGCAAAACTACTGCAGTAAGAAAGTTACTTCGTGGTATGGG	-4.56 ± 2.6	-6.16 ± 1.6
AATGTTGTTGATGCAACCATAAAGTGATATTTAATAATTATTTATAATCAACCATATATTGATATCTCCAGCAACTTAACCACAAAAACAAAACAACCATAAGTTGATATTTTTGTGAATCGAGTATTTCAGCAAAACTACTGCAGTAAGAA	-2.65 ± 0.85	-3 ± 0.78
AATGTTGTTGATGCAACCATAAAGTGATATTTAATAATTATTTATAATCACAACCATATATTGATATCTCACAAAACAACCATAAGTTGATATTTTTGTGAATCGAGTATTTCAGCAAAACTACTGCAGTAAGAAAGTTACTTCGTGGTATG	-5.27 ± 1	-8.21 ± 0.54
AATGTTGTTGATGCAACCATAAAGTGATATTTAATAATTATTTATAATCAGCAACTCAACCATATATTGATATCTCACAAAACAACCATAAGTTGATATTTTTGTGAATCGAGTATTTCAGCAAAACTACTGCAGTAAGAAAGTTACTTCGT	-3.27 ± 0.88	-3.68 ± 1.1
AATGTTGTTGATGCAACCATAAAGTGATATTTAATAATTATTTATAATCAGCAACTGCCAACACCCCACCAACGCGCGGTCGCGAGACACCCCACCAACGCCTGGTCGCGGGGGTGTCCGATCTGATTTCAGCAAAACTACTGCAGTAAGAA	-3.03 ± 0.58	-6.35 ± 0.99
AATGTTGTTGATGCAACCATAAAGTGATATTTAATAATTATTTATAATCAGCAACTTAAAACACCCCACCAACGCGCGGTCGCGAGACACCCCACCAACGCCTGGTCGCGGGGGTGTCCGATCTGATTTCAGCAAAACTACTGCAGTAAGAA	-3.63 ± 1.1	-5.87 ± 1.1
AATGTTGTTGATGCAACCATAAAGTGATATTTAATAATTATTTATAATCAGCAACTTAACAACCATATATTGATATCTCACAAAACAACCATAAGTTGATATTTTTGTGAATCGAGTATTTCAGCAAAACTACTGCAGTAAGAAAGTTACTT	-4.07 ± 1.9	-3.63 ± 1.3
AATGTTGTTGATGCAACCATAAAGTGATATTTAATAATTATTTATAATCAGCAACTTAACAACCATATATTGATATCTCCCACAAAAACAAAACAACCATAAGTTGATATTTTTGTGAATCGAGTATTTCAGCAAAACTACTGCAGTAAGAA	-3.54 ± 1.9	-1.81 ± 0.81
AATGTTGTTGATGCAACCATAAAGTGATATTTAATAATTATTTATAATCAGCAACTTAACACACCCCACCAACGCGCGGTCGCGAGACACCCCACCAACGCCTGGTCGCGGGGGTGTCCGATCTGATTTCAGCAAAACTACTGCAGTAAGAA	-3.16 ± 0.77	-5.82 ± 1.5
AATGTTGTTGATGCAACCATAAAGTGATATTTAATAATTATTTATAATCAGCAACTTAACCAACCCCACCAACGCGCGGTCGCGAGACACCCCACCAACGCCTGGTCGCGGGGGTGTCCGATCTGATTTCAGCAAAACTACTGCAGTAAGAA	-4.2 ± 0.92	-5.95 ± 1.6
AATGTTGTTGATGCAACCATAAAGTGATATTTAATAATTATTTATAATCAGCAACTTAACCACAAAAACCAACGCGCGGTCGCGAGAACAAAAACCAACGCCCTGTCGCGGGCTGTGAATCGAGTATTTCAGCAAAACTACTGCAGTAAGAA	-4.56 ± 2.1	-6.97 ± 1.6
AATGTTGTTGATGCAACCATAAAGTGATATTTAATAATTATTTATAATCAGCAACTTAACCACAAAAACCAACGCGCGGTCGCGAGAACAAAACAACCATAAGTTGATATTTTTGTGAATCGAGTATTTCAGCAAAACTACTGCAGTAAGAA	-2.16 ± 0.37	-3.6 ± 1.3
AATGTTGTTGATGCAACCATAAAGTGATATTTAATAATTATTTATAATCAGCAACTTAACCACAAAAACCAACGCGCGGTCGCGAGACACCCCACCAACGCCTGGTCGCGGGGGTGTCCGATCTGATTTCAGCAAAACTACTGCAGTAAGAA	-4.28 ± 1	-7.55 ± 2
AATGTTGTTGATGCAACCATAAAGTGATATTTAATAATTATTTATAATCAGCAACTTAACCACAAAACAAAACGCGCGGTCGCGAGACACCCCACCAACGCCTGGTCGCGGGGGTGTCCGATCTGATTTCAGCAAAACTACTGCAGTAAGAA	-3.29 ± 0.78	-6.07 ± 0.85

Sequence	relative integration efficiency (log2) [1]	relative integration efficiency (log2) [2]
AATGTTGTTGATGCAACCATAAAGTGATATTTAATAATTATTTATAATCAGCAACTTAACCACAAAACAACCAGCGCGGTCGCGAGACACCCCACCAACGCCTGGTCGCGGGGGTGTCCGATCTGATTTCAGCAAAACTACTGCAGTAAGAA	-5.07 ± 2.1	-7.15 ± 1.6
AATGTTGTTGATGCAACCATAAAGTGATATTTAATAATTATTTATAATCAGCAACTTAACCACAAAACAACCATAAAATGATAATTAACAAAAGTTGGTATTCAACTATAAAATGTGAATCGAGTATTTCAGCAAAACTACTGCAGTAAGAA	-1.31 ± 1.8	-2.67 ± 1.1
AATGTTGTTGATGCAACCATAAAGTGATATTTAATAATTATTTATAATCAGCAACTTAACCACAAAACAACCATAAAGTGATATTTAACAAAAGTTGGTATTCAACTATAAAATGTGAATCGAGTATTTCAGCAAAACTACTGCAGTAAGAA	-0.811 ± 0.85	-2.53 ± 1.4
AATGTTGTTGATGCAACCATAAAGTGATATTTAATAATTATTTATAATCAGCAACTTAACCACAAAACAACCATAAGTTGATATTTTACAAAAGTTGGTATTCAACTATAAAATGTGAATCGAGTATTTCAGCAAAACTACTGCAGTAAGAA	-0.485 ± 0.68	-2.49 ± 1.1
AATGTTGTTGATGCAACCATAAAGTGATATTTAATAATTATTTATAATCAGCAACTTAACCACAAAACAACCATAGCGGTCGCGAGACACCCCACCAACGCCTGGTCGCGGGGGTGTCCGATCTGATTTCAGCAAAACTACTGCAGTAAGAA	-4.33 ± 1.8	-6.21 ± 1.6
AATGTTGTTGATGCAACCATAAAGTGATATTTAATAATTATTTATAATCAGCAACTTAACCACAAAACAACCATATAGGTCGCGAGACACCCCACCAACGCCTGGTCGCGGGGGTGTCCGATCTGATTTCAGCAAAACTACTGCAGTAAGAA	-3.44 ± 0.57	-5.2 ± 1.6
AATGTTGTTGATGCAACCATAAAGTGATATTTAATAATTATTTATAATCAGCAACTTAACCACAAAACAACCATATATTGAGCGAGACACCCCACCAACGCCTGGTCGCGGGGGTGTCCGATCTGATTTCAGCAAAACTACTGCAGTAAGAA	-2.37 ± 1.7	-4.19 ± 1.3
AATGTTGTTGATGCAACCATAAAGTGATATTTAATAATTATTTATAATCAGCAACTTAACCACAAAACAACCATATATTGATACAAAACAACCATAAGTTGATATTTTTGTGAATCGAGTATTTCAGCAAAACTACTGCAGTAAGAAAGTTA	-2.08 ± 1.7	-4.34 ± 0.99
AATGTTGTTGATGCAACCATAAAGTGATATTTAATAATTATTTATAATCAGCAACTTAACCACAAAACAACCATATATTGATAGAGACACCCCACCAACGCCTGGTCGCGGGGGTGTCCGATCTGATTTCAGCAAAACTACTGCAGTAAGAA	-1.28 ± 2	-3.06 ± 1.2
AATGTTGTTGATGCAACCATAAAGTGATATTTAATAATTATTTATAATCAGCAACTTAACCACAAAACAACCATATATTGATATACAAAACAACCATAAGTTGATATTTTTGTGAATCGAGTATTTCAGCAAAACTACTGCAGTAAGAAAGT	-0.952 ± 0.93	-4.08 ± 1.3
AATGTTGTTGATGCAACCATAAAGTGATATTTAATAATTATTTATAATCAGCAACTTAACCACAAAACAACCATATATTGATATAGACACCCCACCAACGCCTGGTCGCGGGGGTGTCCGATCTGATTTCAGCAAAACTACTGCAGTAAGAA	-1.07 ± 1.7	-2.48 ± 1.1
AATGTTGTTGATGCAACCATAAAGTGATATTTAATAATTATTTATAATCAGCAACTTAACCACAAAACAACCATATATTGATATCACAAAACAACCATAAGTTGATATTTTTGTGAATCGAGTATTTCAGCAAAACTACTGCAGTAAGAAAG	-0.718 ± 0.95	-2.64 ± 0.93
AATGTTGTTGATGCAACCATAAAGTGATATTTAATAATTATTTATAATCAGCAACTTAACCACAAAACAACCATATATTGATATCGACACCCCACCAACGCCTGGTCGCGGGGGTGTCCGATCTGATTTCAGCAAAACTACTGCAGTAAGAA	-1.19 ± 2	-2.44 ± 0.91
AATGTTGTTGATGCAACCATAAAGTGATATTTAATAATTATTTATAATCAGCAACTTAACCACAAAACAACCATATATTGATATCTACAAAACAACCATAAGTTGATATTTTTGTGAATCGAGTATTTCAGCAAAACTACTGCAGTAAGAAA	-0.176 ± 0.54	-1.23 ± 0.67
AATGTTGTTGATGCAACCATAAAGTGATATTTAATAATTATTTATAATCAGCAACTTAACCACAAAACAACCATATATTGATATCTACACCCCACCAACGCCTGGTCGCGGGGGTGTCCGATCTGATTTCAGCAAAACTACTGCAGTAAGAA	-1.16 ± 1.5	-2.46 ± 1
